Consider 17 sequences from the DeepSol protein solubility set.

This data set is described as follows: soluble on expression in E. coli; label from the status in PepcDB or PDB records.
“MSLKIKVGLIGFGRMGRFYLKEMQKSGRWDVAYICDINPDCRELAKQLSPESKILENEQEMFDDESVQVVGLFALADSRLDRIEKAIKYGKHIISEKPVSDTIDKEWKVVDITEKASCFSTVNLYLRNAWYHQTIKQFIDQGEIGELAILRICHMTPGLAPGEGHEYEGPAFHDCGMHYVDIARWYAGCEYKTWHAQGVNMWSYKDPWWVQCHGTFQNGVVFDITQGFVYGQLSKDQTHNSYVDIIGTKGIARMTHDFKTAVVDLRGVTQTHHIEKPFGGKNIDVLCDLFADSIETGIRNPQLPLIRDSAIASEYAWTFLHDAYTHDLPAIGEGHHHHHH”: the “soluble on expression in E. coli” value is reported as “soluble”.
With “GMTNVGRPIETHAITVGQGSDARSIAALVRAPAQDERPTCIWLGGYRSDMTGTKALEMDDLAASLGVGAIRFDYSGHGASGGAFRDGTISRWLEEALAVLDHFKPEKAILVGSSMGGWIALRLIQELKARHDNPTQVSGMVLIAPAPDFTSDLIEPLLGDRERAELAENGYFEEVSEYSPEPNIFTRALMEDGRANRVMAGMIDTGCPVHILQGMADPDVPYQHALKLVEHLPADDVVLTLVRDGDHRLSRPQDIDRMRNAIRAMIEPRP”, the “soluble on expression in E. coli” value was “soluble”.
Next, “MSGGEAQGKRKQWQRWLSPRYVWRRLRHNIGPKLVSLGAALVLWSVSTGDQRAQVQQSYDVPITVRDTTGASGSDERRAVSDLNPETVRVTLTGRPERLNELRPSNIEALLDVTGVPEGSFNRPVQIVAPSNTVLSKQVPERVQGFVDSELSRTLTVTLGVASPAENSLPRFEVRPSEVQATAPSRVLNQVTRVVTSPVDLDPGEEREAPLIALDSRGRVVEPVTLHPASVSVQRLDTGTLPVKTLPVVLGAPPASLRVQSQTLQPRTVRVVAAPELLGRLREVSGQVDYRVGSSTLPVTLRLPDGAQALETVSVSLVVERIKAPDPGAGAPTQQKSGASSSSGGNLEHHHHHH”: “soluble”; “MSEKTMGPRQSRPGILTPAQERVAQAIARLGPEISLTDISRMVGGHPNASRQHIKTLENSGYISATQKRGAAGRPAQLYSITPEGLRALAGNATLIAHTSFVRSLSHYIANQPHPEERALALGSQMVRDEGPLPGATKVDKVVNLLEKYGFAPTQAGTEIQLLTCPVLDSAVRHPEVVCTMHRGILNEITGNNTTFILEPFARPGMCVIRTVSPTANPTQT”: “not soluble”; “MKFLELNKKRHATKHFTDKLVDPKDVRTAIEIATLAPSAHNSQPWKFVVVREKNAELAKLAYGSNFEQVSSAPVTIALFTDTDLAKRARKIARVGGANNFSEEQLQYFMKNLPAEFARYSEQQVSDYLALNAGLVAMNLVLALTDQGIGSNIILGFDKSKVNEVLEIEDRFRPELLITVGYTDEKLEPSYRLPVDEIIEKR”: “soluble”.
Then “PREVLTGGHSVSAPQENRIYVMDSVFMHLTESRVHVYDYTNGKFLGMVPTAFNGHVQVSNDGKKIYTMTTYHERITRGKRSDVVEVWDADKLTFEKEISLPPKRVQGLNYDGLFRQTTDGKFIVLQNASPATSIGIVDVAKGDYVEDVTAAAGCWSVIPQPNRPRSFMTICGDGGLLTINLGEDGKVASQSRSKQMFSVKDDPIFIAPALDKDKAHFVSYYGNVYSADFSGDEVKVDGPWSLLNDEDKAKNWVPGGYNLVGLHRASGRMYVFMHPDGKEGTHKFPAAEIWVMDTKTKQRVARIPGRDALSMTIDQQRNLMLTLDGGNVNVYDISQPEPKLLRTIEGAAEASLQVQFHPVGGT”, with “soluble”.
For “MSLTFTEQAKDQAQASWQGSFQHPFITELHEGTLSPTIFRYYLIQDHYYLKHFSQLYRLIAAQTQQPRLKKLLLTNAENLALGELAIRETFFEELAITEEEVAATPIAPTAYHYVSHMYRQLIEGTPKTAAASMLPCSWLYQEIGAQLVKQHSPEPLYQRWIETYAGEEAYQHVQEERQLLDQLYEESSPQEQAAMITAFVISSEMEYAFWEMAYTHETWIGEGGSHHHHHH”, the “soluble on expression in E. coli” value is “soluble”.
Then “MKDTLKIGLLGLGTVGTGVLTLLKEHQEKISQVTGMNVVIEKAFVRNLETKQAQAEEYGLSLTTSIDDILEDKEIQIVVELMGTIEPAKTYIMKALEKGKHIVTANKDLLAQHGSELVALAQKHHCDLYYEASVAGGIPILRTIANSLAADNIQQVLGIVNGTTNYMLTQMVSADKSYEEALAEAQALGFAEADPTNDVDGIDAAYKMVILSQFAFGMNVSLPQVDIRGIRGLSLDDVAMAKQLGYEIKLIGSAEQNENSISVEVAPMLVNQKHPIASVRNEYNAVFIKSAGVGESMYYGPGAGAKPTATSVVSDLITIAKNIRLATTGHMFNSYQHKTQLTSSENVFGQYYFSLDVPDTPGQFLQLTQLMTKAEVSFDQLVQQKSDGQRARIVAITHQISKAQMQQVVIAIQNTEAFQLLNVMKVIGDE”, with “not soluble”; and “MEKIKNTCKIWEYIYTISRDRLYQKIPKEEFLRLSTSDKEYLEAIKNLNNPKISELARDMGYTKTAVTTMVQKLEKNGYLKKIKSKEDKREINVELTDKGRYIFELKEEVYEYTIKRIKEVLTPQELGAFKAILEKIAKEFDQELGKIYEKNENIDKSDGPPII”, with “not soluble”.
For “SLKKKSLKLTALFLALSCFPAFAEQTVDIEVQGIRGFRAVRNTDLNVNLINKEEMDGSERYQHLVTKAVDRGLRVFGYYESSVRFERKQRQGKRDLLIAHVTPGEPTKIAGTDVQIEGEAAQDENFNALRKNLPKDGVLVEHQTYDDYKTAISRLALNRGYFDGNFKISRLEISPETHQAWWRMLFDSGVRYHYGNITFSHSQIRDDYLNNILNIKSGDPYLMNNLSDLTSDFPSSNWFSSVLVQPNVNHKSKTVDVEIILYPRKKNAMELGVGFSTDGGVHGQIGWTKPWINSRGHSLRSNLYLSAPKQTLEATYRMPLLKNPLNYYYDFAVGWEGEKENDTNTRVLTLSALRYWNNAHGWQYFGGLRMRYDSFTQADITDKTLLLYPTVGFTRTRLRGGSFATWGDVQKITFDLSKRIWLSESSFIKVQASSAWVRTYAENHRVVARAEIGYLHTKGIEKIPPTLRFFAGGDRSVRGYGYKKIAPKNRNGKLVGGSRLLTTSLEYQYQVYPNWWAATFADSGLAADNYTAKELRYGTGVGVRWASPVGAIKFDIATPIRDKDNSKNIQFYIGLGTEI”, the “soluble on expression in E. coli” value is given as “soluble”.
Then “MSLKQTNPFVYSNDNKRYHTWNYCLREEFGQKTYKVALDGGFDCPNRDGTVAHGGCTFCSAAGSGDFAGNRALDLKIQFQQVRDKMQTKWKDGKCIAYFQAFTNTHAPVAELREKFETVLNEPGVVGLSIATRPDCLPDDVVEYLAELNERTYLWLELGLQSAHDETGRLINRAHDYDCYVEGVRKLQKHNIRICTHIINGLPKETPEMMMETTRKVVESGVDGIKIHLLHLLKGTPMVEDYKKGDLEFLTRDGYVNLVADQLEILPPEMVIHRITGDGGVDDLIGPVWSLNKFEVLNAIDAELVRRDSWQGKLYQPVEVNAKEGHHHHHH”, with “soluble”; and “MGTKREKDSLAFLLNSGARLLNNAFERRISEAGLGLTPGEARALLTVAVVDGSKQSDIAARLGIEPMTICAYLDKLQSLDLIERQQDPQDRRSKRIVLTKNSTDMLEAVRQEIDELVRHATRGLNEDEVALFRSFLQTLRDNLQPEQPGQSC”, with “soluble”.
On to “MSLRLKVSFQAMESTVPLNYNYFLSSFIYKRLASQNENFARFLHEKGYGKRFKFFTFSQLFFENSRVSGERIFIFPGKGWWYISSPVVEFVRYMFSSLSEDPVIRVGKTEFIVKSIDIENSLPDQSEYHFVMLSPLVVSVPEENNGKLYHRYLHPGEEEFYEVFRKNLMKKYRAFYGKDPEGTVEVIPDWDYIKSRHRITKRIKLKNAFVRAVVFPFKIRGEKKLVEIGYEAGFGEKNSMGFGMVALKKYEREGHHHHHH”, for which the “soluble on expression in E. coli” value is reported as “soluble”.
For “GHMFESAEVGHSIDKDTYEKAVIELREALLEAQFELKQQARFPVIILINGIEGAGKGETVKLLNEWMDPRLIEVQSFLRPSDEELERPPQWRFWRRLPPKGRTGIFFGNWYSQMLYARVEGHIKEAKLDQAIDAAERFERMLCDEGALLFKFWFHLSKKQLKERLKALEKDPQHSWKLSPLDWKQSEVYDRFVHYGERVLRRTSRDYAPWYVVEGADERYRALTVGRILLEGLQAALATKERAKRQPHAAPLVSSLDNRGLLDSLDLGQYLDKDAYKEQLAAEQARLAGLIRDKRFRQHSLVAVFEGNDAAGKGGAIRRVTDALDPRQYHIVPIAAPTEEERAQPYLWRFWRHIPARRQFTIFDRSWYGRVLVERIEGFCAPADWLRAYGEINDFEEQLSEYGIIVVKFWLAIDKQTQMERFKEREKTPYKRYKITEEDWRNRDKWDQYVDAVGDMVDRTSTEIAPWTLVEANDKRFARVKVLRTINDAIEAAYKKDKGA”, the “soluble on expression in E. coli” value is given as “soluble”.
Next, “MSLRAAKRHGISIIVAEKNLILGLDVGNTVIKAVLFDTAGRQIAQHAIDGHSTYPQPGYVERDLEELWRNGCEAIRQLLVKSAVDPNSIAGVGCAGHGNGLYLLDKEQQPLLGIQSLDSRAADMAAELDRKSGDLLQARCLQRPWPAQTPTLLAWVKRHALDLYAQTSTVLFCKDFINFRLTGCLANDISDLSGAGLLALPEVLLDRELLSLYGLEDAFAFFPRCVESADIVGQVTREAAGLTGLSEGTPVIGGFFDVVSSAMGSGVINPGEASVIAGTWSINQVFADKPVVSPDVFMVTTFGRDRYVNIESSATSAANLEWYVHRVRADHGDHAFERCNELVGSVTPRADDPFFHPFIFGSRLGAEFRGGFYGLAGWHGEGHMVRALFEGVCFEHRRHIGVLREAGLPVESAVMSGGGSRSQHWPQIMADVLEIPLRVAEARETGALGAALGAAVATGLYPNYEEAVAAMTRVQNSYQPDTARVSHYRRRYGLYQELTGQLRSFWSALRLPQEGHHHHHH”: “not soluble”; “MSLKYYLAPMEGITGFIYRNSYEKFFGGIDKYFAPFVVPNSSKSLKTKELRDVLPENNKGINLVPQILTNDSEGFISTARKLKQLGYNEINLNLGCPSGTVVGKKRGSGFLAHKEELDKFLEEIFKIDDMKLSIKTRLGMDKPEEFYELIKIYNKYPMEELIIHPRTRQDFYANKPNLEVFKDAISLSKNPICYNGDIFTVEDHNKLIETFPEVDKIMLGRGILANPALMNEILNNEFMDKKVLKEFHDEVFNKYREVFNEDRNAMFRMKELWGYMIYMFSNNKKYAKKIKKAQKVVEYNQAVTSLFLEQDILKGAGLFSSEEGHHHHHH”: “soluble”.
Then “MLYQSETLQLHWLENGIAELVFDAPGSVNKLDTKTVANLGEALNVLEKQSELKGLLLRSAKTALIVGADITEFLSLFNAPPEKLHQWLVFANTIFNRLEDLPVPTISAINGYALGGGCECILATDFRIASPEARIGLPETKLGIMPGFGGSVRLPRLLGADSALEIIATGKDVTANDALKIGLVDAVVDPEKLVGSALTMLKQAIDGKLDWQAARRPKLEPLKLNPTEAAMCFTIAKGRVMQVAGKHYPAPLTAVKTIEAAAKFGRTEALNLETNSFVPLAGSNEARALVGIFLNDQYVKAQAKKLSKGVAAPKLAAVLGAGIMGGGIAYQSALKSVPVIMKDINENSLDLGMNEAAKLLNKQLERGKVDGLKMASILATIRPTLDYAGIERAQVIVEAVVENPKVKAAVLAEVEALIGEDTVLASNTSTIPIDQLAKSLKRPENFCGMHFFNPVHRMPLVEIIRGAKTSDKTLAAVVAYATQMGKTPIVVNDCPGFFVNRVLFPYLAGFGMLVRDGGDFHQIDKVMEKQFGWPMGPAYLLDVVGIDTAHHAQAVMAAGFPERMNKDYRDAVDVMFDNQRFGQKNGQGFYRYTQDAKGKPRKENDEQVDKLLAEISQPLQEFSDEDIIARTMIPMINEVVRCLEEGIIASAAEGDMALVYGLGFPPFHGGVFRYLDTLGSANYVEMAQRYAHLGALYHVPAGLRAKAEHNESYYPVAAALLDVSTNQPA”, with “not soluble”.
